Measured values: patent US20200181248A1 (Chugai, published 2020)

Biological target: T1, soluble form of human GPC3 (lacking the C-terminal hydrophobic region 564-580, Flag-tagged, heparan sulfate … (human, UniProt P51654 25-563, heparan sulfate modification (smear-like band of 50 to 300 kDa)))
T1 construct: also called soluble form of GPC3; purified soluble form of GPC3; not shown: Flag tag from vector pCXND2-Flag
Assay: sandwich ELISA: the concentration varied is that of soluble GPC3 ('GPC3 hepa'); M6B1 coated as capture, biotin-labeled M18D4 as detection

T1 sequence (P51654 25-563, form in doubt): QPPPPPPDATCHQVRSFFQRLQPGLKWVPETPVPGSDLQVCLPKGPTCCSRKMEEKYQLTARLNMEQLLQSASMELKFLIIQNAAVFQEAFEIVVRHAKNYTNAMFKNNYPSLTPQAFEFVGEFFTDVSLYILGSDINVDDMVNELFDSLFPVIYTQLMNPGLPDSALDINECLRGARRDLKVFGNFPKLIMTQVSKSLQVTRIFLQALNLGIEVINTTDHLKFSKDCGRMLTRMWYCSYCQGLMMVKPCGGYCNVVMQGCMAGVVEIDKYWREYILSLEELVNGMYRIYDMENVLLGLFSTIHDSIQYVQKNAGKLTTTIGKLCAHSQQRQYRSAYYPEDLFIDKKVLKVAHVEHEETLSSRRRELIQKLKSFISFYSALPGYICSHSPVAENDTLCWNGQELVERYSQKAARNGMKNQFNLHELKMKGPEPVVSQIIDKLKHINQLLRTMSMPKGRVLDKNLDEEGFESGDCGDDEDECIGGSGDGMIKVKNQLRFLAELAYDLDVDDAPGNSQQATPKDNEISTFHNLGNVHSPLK

B1: M6B1 (antibody, V domains shown)
VH: EVQLVESGGDLVKPGGSLKLSCAASGFTFSSYAMSWVRQTPEKRLEWVAAINSNGGTTYYPDTMKDRFTISRDNAKNTLYLQMSSLRSEDSALYYCTRHNGGYENYGWFAYWGQGTLVTVSA
VL: DIQMTQSPSSLSASLGGKVTITCKASQDINKNIIWYQHKPGKGPRLLIWYTSTLQPGIPSRFSGSGSGRDYSFSISNLEPEDIATYYCLQYDNLPRTFGGGTKLEIK
With B1 the “EC50 (read off the curve)” value was roughly 0.02 µg/mL.
